Test results: patent publication US20240301385, “DNA MODIFYING ENZYMES AND ACTIVE FRAGMENTS AND VARIANTS THEREOF AND METHODS OF USE” (LIFEEDIT THERAPEUTICS, INC., published 2024)

T1: APG30127-L32-nAPG07433.1 (synthetic)
T1 chain: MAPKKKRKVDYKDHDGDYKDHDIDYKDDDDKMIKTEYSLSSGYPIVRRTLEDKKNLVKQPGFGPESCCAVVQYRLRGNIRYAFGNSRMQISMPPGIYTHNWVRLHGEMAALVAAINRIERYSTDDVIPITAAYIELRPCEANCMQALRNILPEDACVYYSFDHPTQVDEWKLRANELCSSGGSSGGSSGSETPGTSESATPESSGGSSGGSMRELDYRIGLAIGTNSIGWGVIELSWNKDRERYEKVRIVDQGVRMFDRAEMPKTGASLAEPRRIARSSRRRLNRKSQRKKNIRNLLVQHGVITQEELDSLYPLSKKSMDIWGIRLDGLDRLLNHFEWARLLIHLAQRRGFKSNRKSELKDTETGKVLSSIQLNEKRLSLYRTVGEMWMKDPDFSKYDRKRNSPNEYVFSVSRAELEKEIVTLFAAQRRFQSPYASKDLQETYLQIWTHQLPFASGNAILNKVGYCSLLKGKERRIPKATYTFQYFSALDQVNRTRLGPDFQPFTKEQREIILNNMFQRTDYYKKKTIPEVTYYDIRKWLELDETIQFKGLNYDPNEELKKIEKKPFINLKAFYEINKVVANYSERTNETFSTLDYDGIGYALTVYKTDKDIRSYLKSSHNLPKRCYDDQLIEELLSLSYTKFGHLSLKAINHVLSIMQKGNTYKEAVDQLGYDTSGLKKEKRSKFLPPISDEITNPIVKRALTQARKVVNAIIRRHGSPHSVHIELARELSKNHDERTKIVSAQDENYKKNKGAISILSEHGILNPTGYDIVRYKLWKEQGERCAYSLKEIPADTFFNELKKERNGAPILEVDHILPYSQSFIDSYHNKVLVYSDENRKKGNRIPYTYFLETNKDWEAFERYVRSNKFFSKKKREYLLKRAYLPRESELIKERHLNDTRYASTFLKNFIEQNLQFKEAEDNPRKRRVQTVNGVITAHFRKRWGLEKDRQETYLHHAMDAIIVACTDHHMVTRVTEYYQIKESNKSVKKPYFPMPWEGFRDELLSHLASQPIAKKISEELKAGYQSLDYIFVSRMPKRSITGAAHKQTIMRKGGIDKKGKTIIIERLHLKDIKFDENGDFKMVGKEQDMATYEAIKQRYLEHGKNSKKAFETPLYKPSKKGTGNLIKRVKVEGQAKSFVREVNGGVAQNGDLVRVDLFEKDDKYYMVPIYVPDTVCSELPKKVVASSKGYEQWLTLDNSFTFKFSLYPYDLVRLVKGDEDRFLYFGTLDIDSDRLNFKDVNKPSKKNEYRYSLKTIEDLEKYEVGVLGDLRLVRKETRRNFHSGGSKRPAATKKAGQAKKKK

T2: APG30129-L32-nAPG07433.1 (synthetic)
T2 chain: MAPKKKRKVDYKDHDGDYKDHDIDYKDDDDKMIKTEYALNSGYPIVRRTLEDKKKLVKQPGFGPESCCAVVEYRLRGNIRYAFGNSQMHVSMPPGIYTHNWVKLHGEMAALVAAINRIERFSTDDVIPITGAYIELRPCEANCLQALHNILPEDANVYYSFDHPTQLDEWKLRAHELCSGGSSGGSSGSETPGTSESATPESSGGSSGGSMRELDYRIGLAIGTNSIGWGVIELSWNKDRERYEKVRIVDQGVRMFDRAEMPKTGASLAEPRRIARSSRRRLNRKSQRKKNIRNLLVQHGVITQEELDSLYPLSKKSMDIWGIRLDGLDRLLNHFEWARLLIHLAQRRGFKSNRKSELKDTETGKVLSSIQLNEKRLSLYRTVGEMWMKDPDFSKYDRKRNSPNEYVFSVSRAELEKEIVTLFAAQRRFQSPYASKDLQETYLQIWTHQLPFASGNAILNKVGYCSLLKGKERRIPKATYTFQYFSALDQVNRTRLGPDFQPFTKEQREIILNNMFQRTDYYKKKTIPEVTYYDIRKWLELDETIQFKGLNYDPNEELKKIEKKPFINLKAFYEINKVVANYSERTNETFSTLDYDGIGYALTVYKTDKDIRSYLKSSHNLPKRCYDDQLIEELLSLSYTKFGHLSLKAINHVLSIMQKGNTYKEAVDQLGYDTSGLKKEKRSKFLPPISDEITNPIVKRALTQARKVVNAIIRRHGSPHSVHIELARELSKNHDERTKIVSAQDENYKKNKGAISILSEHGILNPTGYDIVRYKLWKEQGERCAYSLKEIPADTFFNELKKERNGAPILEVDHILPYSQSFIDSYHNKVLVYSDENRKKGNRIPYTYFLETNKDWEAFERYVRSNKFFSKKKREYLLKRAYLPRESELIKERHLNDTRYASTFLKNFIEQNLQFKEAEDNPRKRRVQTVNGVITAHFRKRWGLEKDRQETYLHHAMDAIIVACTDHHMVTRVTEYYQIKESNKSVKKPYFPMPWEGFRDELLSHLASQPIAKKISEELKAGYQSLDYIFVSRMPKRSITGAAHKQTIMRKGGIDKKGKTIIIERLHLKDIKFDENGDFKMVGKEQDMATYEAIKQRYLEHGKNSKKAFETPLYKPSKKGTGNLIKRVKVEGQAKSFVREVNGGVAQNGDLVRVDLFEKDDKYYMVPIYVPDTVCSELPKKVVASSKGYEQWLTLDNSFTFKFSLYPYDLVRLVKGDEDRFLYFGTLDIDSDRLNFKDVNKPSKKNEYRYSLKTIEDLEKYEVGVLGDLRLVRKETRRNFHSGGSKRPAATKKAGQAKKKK

B1: SGN000186 sgRNA ; SGN000186 target (ssRNA ; dsDNA)
RNA: GGACAGUGCGCAUCUCCCUGGUCAUAGUUCCAUUAAAGCCAAAAGUGGCUUUGAUGUUUCUAUGAUAAGGGUUUCGACCCGUGGCGUCGGGGAUCGCCUGCCCAUUGAAAUGGGCUUCUCCCCAUUUAUU
DNA 1: GGACAGTGCGCATCTCCCTG
DNA 2: CAGGGAGATGCGCACTGTCC
B2: SGN000928 sgRNA ; SGN000928 target (ssRNA ; dsDNA)
RNA: GCUUCUACUCUUGGCUUACAACCCAGUCAUAGUUCCAUGAAAGCCAAAAGUGGCUUUGAUGUUUCUAUGAUAAGGGUUUCGGCCCGUGGCGUCGGGGAUCGCCUGCCCAUUCCGAUGGGCUUCUCCCCAUUUAUU
DNA 1: GCTTCTACTCTTGGCTTACAACCCA
DNA 2: TGGGTTGTAAGCCAAGAGTAGAAGC

Experiments:
Details in all cases: tags: SV40 NLS, 3xFLAG N-term; nucleoplasmin NLS C-term
APG30127-L32-nAPG07433.1 = molecular target: T1, APG30127-L32-nAPG07433.1; test: cell_activity; HEK293FT; PAM SEQ 152
Procedure: (§1) 500 ng of plasmid comprising an expression cassette comprising a coding sequence for each fusion protein shown in Table 3 and 500 ng of plasmid comprising an expression cassette encoding an sgRNA shown in Table 4 were co-transfected into HEK293FT cells at 75-90% confluency in 24-well plates using Lipofectamine 2000 reagent (Life Technologies). Cells were then incubated at […] for 72 h. Following incubation, genomic DNA was then extracted using NucleoSpin 96 Tissue (Macherey-Nagel) following the manufacturer's protocol. The genomic region flanking the targeted genomic site was PCR amplified using the primers in Table 4 and products were purified using ZR-96 DNA Clean and Concentrator (Zymo Research) following the manufacturer's protocol. The purified PCR products were then sent for Next Generation Sequencing on Illumina MiSeq (2×250). Results were analyzed for INDEL formation or introduction of % specific cytosine mutations.
(§2) The position of each nucleotide in the target sequence was determined. “C17” indicates, for example, a cytosine at position 17 of the target sequence. The position of each nucleotide in the target sequence was determined by numbering the first nucleotide in the target sequence closest to the PAM as position 1, and the position number increases in the 3′ direction away from the PAM sequence.

APG30129-L32-nAPG07433.1 = molecular target: T2, APG30129-L32-nAPG07433.1; test: cell_activity; HEK293FT; PAM SEQ 152
Procedure: as §1, §2

nAPG07433.1-APG05840 = nAPG07433.1-APG05840 (synthetic); test: cell_activity; HEK293FT; C>G predominant; PAM SEQ 152

| Binder | activity (APG30127-L32-nAPG07433.1) | activity (APG30129-L32-nAPG07433.1) | activity (nAPG07433.1-APG05840) |
| --- | --- | --- | --- |
| B1 | 14.3 % mutated reads | 11.4 % mutated reads | – |
| B2 | – | – | 20.9 % mutated reads |
